The results in this text go back to PMC5484413 (Nature structural & molecular biology, 2016).

The target in this assay is T1, GST-NPP-14 (C. elegans, UniProt Q17602 1-1390).
T1 sequence (looked up): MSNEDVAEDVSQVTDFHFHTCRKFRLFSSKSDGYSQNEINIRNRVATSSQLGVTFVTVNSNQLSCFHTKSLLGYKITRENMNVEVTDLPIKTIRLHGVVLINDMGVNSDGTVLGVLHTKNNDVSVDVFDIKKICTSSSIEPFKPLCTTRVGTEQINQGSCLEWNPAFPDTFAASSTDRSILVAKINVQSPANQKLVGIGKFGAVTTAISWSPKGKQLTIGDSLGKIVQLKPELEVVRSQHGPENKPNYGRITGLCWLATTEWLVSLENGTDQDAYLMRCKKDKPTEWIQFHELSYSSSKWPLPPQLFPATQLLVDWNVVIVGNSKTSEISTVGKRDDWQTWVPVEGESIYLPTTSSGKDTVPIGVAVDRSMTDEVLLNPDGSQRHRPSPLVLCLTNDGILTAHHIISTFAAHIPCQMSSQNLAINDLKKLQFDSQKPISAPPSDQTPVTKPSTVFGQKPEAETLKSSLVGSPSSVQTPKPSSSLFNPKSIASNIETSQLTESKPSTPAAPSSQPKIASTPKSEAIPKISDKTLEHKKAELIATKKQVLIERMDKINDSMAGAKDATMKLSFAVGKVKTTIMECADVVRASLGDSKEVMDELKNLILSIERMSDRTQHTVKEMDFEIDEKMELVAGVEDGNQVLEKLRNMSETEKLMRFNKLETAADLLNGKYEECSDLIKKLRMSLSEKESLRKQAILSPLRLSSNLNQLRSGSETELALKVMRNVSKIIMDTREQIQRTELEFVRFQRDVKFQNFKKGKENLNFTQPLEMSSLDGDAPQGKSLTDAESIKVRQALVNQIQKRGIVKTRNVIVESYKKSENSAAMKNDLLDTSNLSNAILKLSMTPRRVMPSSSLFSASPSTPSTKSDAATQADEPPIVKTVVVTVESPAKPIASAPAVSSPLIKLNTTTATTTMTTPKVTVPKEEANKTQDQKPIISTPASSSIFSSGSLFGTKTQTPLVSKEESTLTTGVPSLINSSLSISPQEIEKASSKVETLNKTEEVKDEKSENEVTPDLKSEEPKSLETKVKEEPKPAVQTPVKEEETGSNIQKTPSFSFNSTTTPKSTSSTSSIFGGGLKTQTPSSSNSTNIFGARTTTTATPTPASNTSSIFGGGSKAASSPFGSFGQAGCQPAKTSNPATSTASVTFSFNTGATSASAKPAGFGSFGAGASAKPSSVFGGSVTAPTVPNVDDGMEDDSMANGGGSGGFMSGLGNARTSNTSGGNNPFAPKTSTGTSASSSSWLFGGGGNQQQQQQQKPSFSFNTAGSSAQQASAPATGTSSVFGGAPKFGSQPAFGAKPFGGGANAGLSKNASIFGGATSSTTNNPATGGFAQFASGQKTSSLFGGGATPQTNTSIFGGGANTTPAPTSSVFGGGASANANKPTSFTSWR
The assay is described as follows: pull-down.

B1: CED-3(1-220)-His6 (wild-type) (domain or fragment, C. elegans, UniProt P42573 1-220, looked up)
chain: MMRQDRRSLLERNIMMFSSHLKVDEILEVLIAKQVLNSDNGDMINSCGTVREKRREIVKAVQRRGDVAFDAFYDALRSTGHEGLAEVLEPLARSVDSNAVEFECPMSPASHRRSRALSPAGYTSPTRVHRDSVSSVSSFTSYQDIYSRARSRSRSRALHSSDRHNYSSPPVNAFPSQPSSANSSFTGCSSLGYSSSRNRSFSKASGPTQYIFHEEDMNFV
Turning to B1, the binding result is “binds”.

B2: CED-3(1-220)-His6 L27F (domain or fragment, C. elegans, UniProt P42573 1-220, looked up)
chain: MMRQDRRSLLERNIMMFSSHLKVDEIFEVLIAKQVLNSDNGDMINSCGTVREKRREIVKAVQRRGDVAFDAFYDALRSTGHEGLAEVLEPLARSVDSNAVEFECPMSPASHRRSRALSPAGYTSPTRVHRDSVSSVSSFTSYQDIYSRARSRSRSRALHSSDRHNYSSPPVNAFPSQPSSANSSFTGCSSLGYSSSRNRSFSKASGPTQYIFHEEDMNFV
Take B2: the binding result was “binds”.

B3: CED-3(1-220)-His6 L30F (domain or fragment, C. elegans, UniProt P42573 1-220, looked up)
chain: MMRQDRRSLLERNIMMFSSHLKVDEILEVFIAKQVLNSDNGDMINSCGTVREKRREIVKAVQRRGDVAFDAFYDALRSTGHEGLAEVLEPLARSVDSNAVEFECPMSPASHRRSRALSPAGYTSPTRVHRDSVSSVSSFTSYQDIYSRARSRSRSRALHSSDRHNYSSPPVNAFPSQPSSANSSFTGCSSLGYSSSRNRSFSKASGPTQYIFHEEDMNFV
On to B3, for which the binding result was “binds”.

B4: CED-3(1-220)-His6 G65R (domain or fragment, C. elegans, UniProt P42573 1-220, looked up)
chain: MMRQDRRSLLERNIMMFSSHLKVDEILEVLIAKQVLNSDNGDMINSCGTVREKRREIVKAVQRRRDVAFDAFYDALRSTGHEGLAEVLEPLARSVDSNAVEFECPMSPASHRRSRALSPAGYTSPTRVHRDSVSSVSSFTSYQDIYSRARSRSRSRALHSSDRHNYSSPPVNAFPSQPSSANSSFTGCSSLGYSSSRNRSFSKASGPTQYIFHEEDMNFV
As for B4, the binding result is recorded as “binds”.
